US8163873
Each block holds one substance with its values, some of them ahead of it.

Tests used:
[1] = biological target: purified abnormally phosphorylated tau, mixed with affinity-purified normal tau (human) (UniProt P10636); assay: competition ELISA on captured tau mixture; unlabeled AT8 at 37 ng/ml, competitor biotinylated AT8 (its signal is read)
[2] = biological target: purified abnormally phosphorylated tau, mixed with affinity-purified normal tau (human) (UniProt P10636); assay: competition ELISA on captured tau mixture; unlabeled AT8 at 111 ng/ml, competitor biotinylated BT2 (its signal is read)
[3] = biological target: purified abnormally phosphorylated tau, mixed with affinity-purified normal tau (human) (UniProt P10636); assay: competition ELISA on captured tau mixture; signal of biotinylated AT8 with casein control, no competing antibody (row 333 ng/ml)
[4] = biological target: purified abnormally phosphorylated tau, mixed with affinity-purified normal tau (human) (UniProt P10636); assay: competition ELISA on captured tau mixture; unlabeled AT8 at 9 µg/ml, competitor biotinylated BT2 (its signal is read)
[5] = biological target: purified abnormally phosphorylated tau, mixed with affinity-purified normal tau (human) (UniProt P10636); assay: competition ELISA on captured tau mixture; unlabeled AT8 at 333 ng/ml, competitor biotinylated AT8 (its signal is read)
[6] = biological target: purified abnormally phosphorylated tau, mixed with affinity-purified normal tau (human) (UniProt P10636); assay: competition ELISA on captured tau mixture; unlabeled AT8 at 3 µg/ml, competitor biotinylated BT2 (its signal is read)
[7] = biological target: PHF-tau (abnormally phosphorylated human tau, 64 and 68 kDa forms, from Alzheimer brain) (human) (UniProt P10636); assay: sandwich ELISA, PHF-tau diluted 1/2000, fixed concentration of AT8
[8] = biological target: purified abnormally phosphorylated tau, mixed with affinity-purified normal tau (human) (UniProt P10636); assay: competition ELISA on captured tau mixture; unlabeled AT8 at 9 µg/ml, competitor biotinylated AT8 (its signal is read)
[9] = biological target: purified abnormally phosphorylated tau, mixed with affinity-purified normal tau (human) (UniProt P10636); assay: competition ELISA on captured tau mixture; signal of biotinylated AT8 with casein control, no competing antibody (row 1 µg/ml)
[10] = biological target: purified abnormally phosphorylated tau, mixed with affinity-purified normal tau (human) (UniProt P10636); assay: competition ELISA on captured tau mixture; signal of biotinylated AT8 with casein control, no competing antibody (row 9 µg/ml)
[11] = biological target: purified abnormally phosphorylated tau, mixed with affinity-purified normal tau (human) (UniProt P10636); assay: competition ELISA on captured tau mixture; signal of biotinylated AT8 with casein control, no competing antibody (row 37 ng/ml)
[12] = biological target: PHF-tau (abnormally phosphorylated human tau, 64 and 68 kDa forms, from Alzheimer brain) (human) (UniProt P10636); assay: sandwich ELISA, PHF-tau diluted 1/200, fixed concentration of AT8
[13] = biological target: purified abnormally phosphorylated tau, mixed with affinity-purified normal tau (human) (UniProt P10636); assay: competition ELISA on captured tau mixture; unlabeled AT8 at 1 µg/ml, competitor biotinylated AT8 (its signal is read)
[14] = biological target: purified abnormally phosphorylated tau, mixed with affinity-purified normal tau (human) (UniProt P10636); assay: competition ELISA on captured tau mixture; unlabeled AT8 at 333 ng/ml, competitor biotinylated BT2 (its signal is read)
[15] = biological target: purified abnormally phosphorylated tau, mixed with affinity-purified normal tau (human) (UniProt P10636); assay: competition ELISA on captured tau mixture; signal of biotinylated AT8 with casein control, no competing antibody (row 3 µg/ml)
[16] = biological target: purified abnormally phosphorylated tau, mixed with affinity-purified normal tau (human) (UniProt P10636); assay: competition ELISA on captured tau mixture; unlabeled AT8 at 37 ng/ml, competitor biotinylated BT2 (its signal is read)
[17] = biological target: purified abnormally phosphorylated tau, mixed with affinity-purified normal tau (human) (UniProt P10636); assay: competition ELISA on captured tau mixture; unlabeled AT8 at 1 µg/ml, competitor biotinylated BT2 (its signal is read)
[18] = biological target: affinity-purified normal human tau (human) (UniProt P10636); assay: sandwich ELISA, normal tau at 1 µg/ml, fixed concentration of AT8
[19] = biological target: purified abnormally phosphorylated tau, mixed with affinity-purified normal tau (human) (UniProt P10636); assay: competition ELISA on captured tau mixture; signal of biotinylated AT8 with casein control, no competing antibody (row 111 ng/ml)
[20] = biological target: PHF-tau (abnormally phosphorylated human tau, 64 and 68 kDa forms, from Alzheimer brain) (human) (UniProt P10636); assay: sandwich ELISA, PHF-tau diluted 1/20, fixed concentration of AT8
[21] = biological target: purified abnormally phosphorylated tau, mixed with affinity-purified normal tau (human) (UniProt P10636); assay: competition ELISA on captured tau mixture; unlabeled AT8 at 111 ng/ml, competitor biotinylated AT8 (its signal is read)
[22] = biological target: affinity-purified normal human tau (human) (UniProt P10636); assay: sandwich ELISA, normal tau at 100 ng/ml, fixed concentration of AT8
[23] = biological target: purified abnormally phosphorylated tau, mixed with affinity-purified normal tau (human) (UniProt P10636); assay: competition ELISA on captured tau mixture; unlabeled AT8 at 3 µg/ml, competitor biotinylated AT8 (its signal is read)
[24] = biological target: affinity-purified normal human tau (human) (UniProt P10636); assay: sandwich ELISA, normal tau at 10 ng/ml, fixed concentration of AT8
[25] = biological target: purified abnormally phosphorylated tau, mixed with affinity-purified normal tau (human) (UniProt P10636); assay: competition ELISA on captured tau mixture; signal of biotinylated BT2 with casein control, no competing antibody (row 37 ng/ml)
[26] = biological target: purified abnormally phosphorylated tau, mixed with affinity-purified normal tau (human) (UniProt P10636); assay: competition ELISA on captured tau mixture; unlabeled BT2 at 37 ng/ml, competitor biotinylated BT2 (its signal is read)
[27] = biological target: purified abnormally phosphorylated tau, mixed with affinity-purified normal tau (human) (UniProt P10636); assay: competition ELISA on captured tau mixture; signal of biotinylated BT2 with casein control, no competing antibody (row 3 µg/ml)
[28] = biological target: purified abnormally phosphorylated tau, mixed with affinity-purified normal tau (human) (UniProt P10636); assay: competition ELISA on captured tau mixture; signal of biotinylated BT2 with casein control, no competing antibody (row 333 ng/ml)
[29] = biological target: purified abnormally phosphorylated tau, mixed with affinity-purified normal tau (human) (UniProt P10636); assay: competition ELISA on captured tau mixture; unlabeled BT2 at 111 ng/ml, competitor biotinylated AT8 (its signal is read)
[30] = biological target: purified abnormally phosphorylated tau, mixed with affinity-purified normal tau (human) (UniProt P10636); assay: competition ELISA on captured tau mixture; signal of biotinylated BT2 with casein control, no competing antibody (row 9 µg/ml)
[31] = biological target: purified abnormally phosphorylated tau, mixed with affinity-purified normal tau (human) (UniProt P10636); assay: competition ELISA on captured tau mixture; unlabeled BT2 at 111 ng/ml, competitor biotinylated BT2 (its signal is read)
[32] = biological target: purified abnormally phosphorylated tau, mixed with affinity-purified normal tau (human) (UniProt P10636); assay: competition ELISA on captured tau mixture; signal of biotinylated BT2 with casein control, no competing antibody (row 1 µg/ml)
[33] = biological target: purified abnormally phosphorylated tau, mixed with affinity-purified normal tau (human) (UniProt P10636); assay: competition ELISA on captured tau mixture; unlabeled BT2 at 37 ng/ml, competitor biotinylated AT8 (its signal is read)
[34] = biological target: purified abnormally phosphorylated tau, mixed with affinity-purified normal tau (human) (UniProt P10636); assay: competition ELISA on captured tau mixture; unlabeled BT2 at 9 µg/ml, competitor biotinylated AT8 (its signal is read)
[35] = biological target: purified abnormally phosphorylated tau, mixed with affinity-purified normal tau (human) (UniProt P10636); assay: competition ELISA on captured tau mixture; unlabeled BT2 at 9 µg/ml, competitor biotinylated BT2 (its signal is read)
[36] = biological target: purified abnormally phosphorylated tau, mixed with affinity-purified normal tau (human) (UniProt P10636); assay: competition ELISA on captured tau mixture; unlabeled BT2 at 333 ng/ml, competitor biotinylated AT8 (its signal is read)
[37] = biological target: purified abnormally phosphorylated tau, mixed with affinity-purified normal tau (human) (UniProt P10636); assay: competition ELISA on captured tau mixture; unlabeled BT2 at 3 µg/ml, competitor biotinylated AT8 (its signal is read)
[38] = biological target: purified abnormally phosphorylated tau, mixed with affinity-purified normal tau (human) (UniProt P10636); assay: competition ELISA on captured tau mixture; unlabeled BT2 at 3 µg/ml, competitor biotinylated BT2 (its signal is read)
[39] = biological target: purified abnormally phosphorylated tau, mixed with affinity-purified normal tau (human) (UniProt P10636); assay: competition ELISA on captured tau mixture; signal of biotinylated BT2 with casein control, no competing antibody (row 111 ng/ml)
[40] = biological target: purified abnormally phosphorylated tau, mixed with affinity-purified normal tau (human) (UniProt P10636); assay: competition ELISA on captured tau mixture; unlabeled BT2 at 333 ng/ml, competitor biotinylated BT2 (its signal is read)
[41] = biological target: purified abnormally phosphorylated tau, mixed with affinity-purified normal tau (human) (UniProt P10636); assay: competition ELISA on captured tau mixture; unlabeled BT2 at 1 µg/ml, competitor biotinylated AT8 (its signal is read)
[42] = biological target: purified abnormally phosphorylated tau, mixed with affinity-purified normal tau (human) (UniProt P10636); assay: competition ELISA on captured tau mixture; unlabeled BT2 at 1 µg/ml, competitor biotinylated BT2 (its signal is read)

absorbance at 450 nm [1]: 0.282 A450
absorbance at 450 nm [2]: 0.381 A450
absorbance at 450 nm [3]: 0.564 A450
absorbance at 450 nm [4]: 0.369 A450
absorbance at 450 nm [5]: 0.093 A450
absorbance at 450 nm [6]: 0.375 A450
A150 nm [7]: 0.565 A150 nm
absorbance at 450 nm [8]: 0.056 A450
absorbance at 450 nm [9]: 0.548 A450
absorbance at 450 nm [10]: 0.578 A450
absorbance at 450 nm [11]: 0.568 A450
A150 nm [12]: 1.18 A150 nm
absorbance at 450 nm [13]: 0.059 A450
absorbance at 450 nm [14]: 0.369 A450
absorbance at 450 nm [15]: 0.573 A450
absorbance at 450 nm [16]: 0.36 A450
absorbance at 450 nm [17]: 0.368 A450
A150 nm [18]: 0.021 A150 nm
absorbance at 450 nm [19]: 0.576 A450
A150 nm [20]: 1.46 A150 nm
absorbance at 450 nm [21]: 0.155 A450
A150 nm [22]: 0.005 A150 nm
absorbance at 450 nm [23]: 0.054 A450
A150 nm [24]: 0.001 A150 nm
Substance: monoclonal antibody AT8

absorbance at 450 nm [25]: 0.395 A450
absorbance at 450 nm [26]: 0.318 A450
absorbance at 450 nm [27]: 0.39 A450
absorbance at 450 nm [28]: 0.381 A450
absorbance at 450 nm [29]: 0.573 A450
absorbance at 450 nm [30]: 0.369 A450
absorbance at 450 nm [31]: 0.245 A450
absorbance at 450 nm [32]: 0.375 A450
absorbance at 450 nm [33]: 0.549 A450
absorbance at 450 nm [34]: 0.548 A450
absorbance at 450 nm [35]: 0.071 A450
absorbance at 450 nm [36]: 0.556 A450
absorbance at 450 nm [37]: 0.557 A450
absorbance at 450 nm [38]: 0.088 A450
absorbance at 450 nm [39]: 0.385 A450
absorbance at 450 nm [40]: 0.179 A450
absorbance at 450 nm [41]: 0.55 A450
absorbance at 450 nm [42]: 0.122 A450
Substance: monoclonal antibody BT2
